# According to patent US20230303711A1:
# B1: Antibody 17 (antibody, human IgG1, kappa, V domains shown)
# VH: QVQLQESGPGLVKPSETLSLTCTVSGGSLDNYYWSWIRQPPGKGLEWIGYIYYSGNTNYNPSLKSRVTISVDTSKNQFSLRLRSVTAADTAVYYCARGGRFLERYWGQGTLVTVSS
# VL: DIQMTQSPSSVSASVGDRVTISCRANQAIGTWLAWYQQKPGKAPKLLIYAASTLQSGVPSRFSGSGSGTEFTLTISSLQAEDVAVYYCQQYYTTPLTFGGGTKLEIKR
# Molecular target: Fc-tagged human CD47-ECD protein (CD47-Fc) (human)
# Assay: ELISA on coated human CD47-Fc; row printed as Affinity (µg/mL)
# Chain of Fc-tagged human CD47-ECD protein (CD47-Fc) (human) (chain, as listed by the source limits assumed): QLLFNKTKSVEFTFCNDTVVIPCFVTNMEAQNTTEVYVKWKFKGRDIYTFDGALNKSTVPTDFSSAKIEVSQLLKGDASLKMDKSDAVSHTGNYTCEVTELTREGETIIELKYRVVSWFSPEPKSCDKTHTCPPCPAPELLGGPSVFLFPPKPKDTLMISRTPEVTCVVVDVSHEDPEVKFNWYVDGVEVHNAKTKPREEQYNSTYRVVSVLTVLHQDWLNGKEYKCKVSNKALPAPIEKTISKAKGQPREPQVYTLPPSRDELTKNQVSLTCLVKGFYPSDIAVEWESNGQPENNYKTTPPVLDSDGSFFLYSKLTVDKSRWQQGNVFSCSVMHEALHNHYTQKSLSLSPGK
binder,measurement,value
B1,EC50,0.088 µg/mL
